{
  "source": "paper PMC2481429",
  "data": [
    {"target": "U2AF65 (Homo sapiens) (UniProt P26368)", "sequence (P26368 whole entry, one chain of several)": "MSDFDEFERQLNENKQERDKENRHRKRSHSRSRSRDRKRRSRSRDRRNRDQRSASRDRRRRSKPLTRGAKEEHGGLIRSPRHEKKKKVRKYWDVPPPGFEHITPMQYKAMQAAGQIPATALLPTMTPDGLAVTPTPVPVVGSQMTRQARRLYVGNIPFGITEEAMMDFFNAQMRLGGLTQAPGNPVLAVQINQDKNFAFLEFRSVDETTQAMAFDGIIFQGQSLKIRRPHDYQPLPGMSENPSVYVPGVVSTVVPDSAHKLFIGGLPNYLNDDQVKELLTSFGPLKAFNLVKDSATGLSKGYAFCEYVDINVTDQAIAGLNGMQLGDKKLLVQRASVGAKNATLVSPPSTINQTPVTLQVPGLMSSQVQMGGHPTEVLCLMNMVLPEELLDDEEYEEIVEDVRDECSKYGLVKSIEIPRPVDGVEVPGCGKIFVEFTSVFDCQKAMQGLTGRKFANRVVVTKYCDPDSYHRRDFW", "assay": "EMSA", "details": "Gel shift with constant 5'-32P RNA and varying U2AF65, triplicate; buffer, salt, pH and temperature not given (as previously described, ref 49)", "units": {"Kd": "nM"}, "values": [
      {"sequence": "UUCGUGCUGACCCUGUCCCGUAUUAGUCCACAGCUGCA [ADMLmut PY tract]", "Kd": 15800},
      {"sequence": "CAAAGGCGUUGGUUUUGUUUCCACAG [INSR intron 10 PY tract]", "Kd": 8800},
      {"sequence": "GCCCUGACCCCUUUUUUUUGCUGCAG [LCATmut intron 4 PY tract]", "Kd": 120},
      {"sequence": "UCACCACUCCUUUCUCUUUCAUUCAG [U2AF2 intron 6 PY tract]", "Kd": 80},
      {"sequence": "UUCGUGCUGACCCUGUCCCUUUUUUUUCCACAGCUGCA [ADML PY tract]", "Kd": 120},
      {"sequence": "GCCCUGACCCCUUCCACCCGCUGCAG [LCAT intron 4 PY tract]", "Kd": 1900},
      {"sequence": "UAAUUCUUUUUUUCUUUCUGCCCUAG [SR140 intron 9 PY tract]", "Kd": 30},
      {"sequence": "CCGCCCACCCCCUCCCCUCACCGCAG [BRUNOL4 intron 9 PY tract]", "Kd": 3400}
    ]},
    {"target": "U2AF65 (Homo sapiens) (UniProt P26368)", "assay": "EMSA", "details": "estimated (asterisk), saturation not reached; Gel shift with constant 5'-32P RNA and varying U2AF65, triplicate; buffer, salt, pH and temperature not given (as previously described, ref 49)", "units": {"Kd": "nM"}, "values": [
      {"sequence": "CCCUGGCUCACUCCCCUGCCCUGCAG [ITGB4 intron 31 PY tract]", "Kd": 52000}
    ]},
    {"target": "U2AF65 (Homo sapiens) (UniProt P26368)", "assay": "EMSA", "details": "estimated (asterisk); no detectable binding at concentrations tested; Gel shift with constant 5'-32P RNA and varying U2AF65, triplicate; buffer, salt, pH and temperature not given (as previously described, ref 49)", "units": {"Kd": "nM"}, "values": [
      {"sequence": "CAUGUGCUCGCUGCCUGCUAAUUAAG [MBNL1 intron 6 PY tract]", "Kd": 100000}
    ]}
  ]
}
